Test results published in paper PMC4533773 (International Journal of Molecular Medicine, 2015).

Biological target: T1, AIM (analyte of the BLI experiment) (UniProt Q9QWK4 22-352)
T1 sequence (looked up): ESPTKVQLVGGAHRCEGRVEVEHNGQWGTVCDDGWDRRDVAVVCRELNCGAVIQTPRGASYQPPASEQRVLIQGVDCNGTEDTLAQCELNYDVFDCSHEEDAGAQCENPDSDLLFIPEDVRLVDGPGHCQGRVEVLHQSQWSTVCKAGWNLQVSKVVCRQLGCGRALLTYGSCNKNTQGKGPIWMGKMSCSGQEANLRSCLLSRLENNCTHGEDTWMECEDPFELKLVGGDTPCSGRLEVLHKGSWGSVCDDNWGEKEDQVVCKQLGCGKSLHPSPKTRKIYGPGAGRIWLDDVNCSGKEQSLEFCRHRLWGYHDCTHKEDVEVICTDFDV
Assay: BLI

Kd: 25.3 nM
koff: 0.000999 s⁻¹
kon: 39600 M⁻¹ s⁻¹
B1: Biotinylated IGFBP-4 (natural protein, UniProt P47879 22-254, looked up)
chain: DEAIHCPPCSEEKLARCRPPVGCEELVREPGCGCCATCALGLGMPCGVYTPRCGSGMRCYPPRGVEKPLRTLMHGQGVCTELSEIEAIQESLQTSDKDESEHPNNSFNPCSAHDHRCLQKHMAKIRDRSKMKIVGTPREEPRPVPQGSCQSELHRALERLAASQSRTHEDLFIIPIPNCDRNGNFHPKQCHPALDGQRGKCWCVDRKTGVKLPGGLEPKGELDCHQLADSFQE
modifications: biotin (labelled after purification; sites not stated)
